Test results published in patent publication US6395531.

Test system: MlyI restriction endonuclease (Micrococcus lylae)
Experiment: cleavage_in_vitro
Conditions: recombinant MlyI yield approximately 50,000 units per gram of cells; assay substrate not stated

plasmid DNA with MlyI sites (sequence not printed)
activity (units/g cells): 50000
